Measurements reported in US11365402B2, “Internal protein tags” (Promega Corporation, priority 2014, dated 2022).

Test system: Anti-VEGF antibody
Experiment: Target antibody driven NANOLUC bioluminescence complementation (NLpep114-VEGFA targets, NLpoly11S-protein G, anti-VEGF antibody)
Type: cell-based
Conditions: HEK293T cells
Excerpt: FIG. 6 depicts a schematic of how the assay components are used to screen for antibody binding to target protein by way of antibody driven NANOLUC bioluminescence complementation between NLpoly11S-fused protein G and internally tagged NLpep114 target protein. The Target, containing an internal pep114 tag, is expressed in mammalian cell culture with an IL6 signal peptide (SP). The SP directs the Target to the secretion pathway. The Target can be assayed in the media (+/−) cells. In the example, a purified preparation of the Large Bit (11S-protein G fusion protein) and Test Antibody are added directly to the mammalian cell culture. The protein G domain of the Large Bit binds to the Fc region of the Test Antibody between the Heavy Chain Constant Domains 2 and 3. If the Test Antibody binds to the Target, the Large and Small Bits can come together to form an active luminesent complex that is detected by furimazine.
NLpep114-target fusion construct DNA was diluted into carrier DNA (pGEM3Zf(−); Promega) at bug total DNA at a mass ratio of 1:10. DNA:FuGENE complexes were formed at a ratio of 1:3 (ug DNA/ul FuGENE), according to manufacturer's protocol (Promega). One part of the transfection complex was mixed with 20 parts (volume/volume) of HEK293T cells (ATCC) suspended at a density of 2×10^5 cells/ml in DMEM (Gibco)+10% FBS (Hyclone). Cells (50 ul/well) were dispensed into 96-well tissue culture plates and incubated in a humidified, 37° C./5% CO2 incubator for 18-24 hours.
HEK293T cells (ATCC) were transfected with three NLpep114-VEGFA DNAs as described above and incubated overnight. The cells were serum starved for 4 hours under the same conditions by replacing the media with an equal volume of (Gibco). NLpoly11S(15)pG in 1×PBS/0.1% BSA (Promega) was added (25 ul/well) to a final concentration of 0.5 ug/ml (12 nM). Anti-VEGF antibody (R&D Systems, #293) in 1×PBS/0.1% BSA (Promega) was added (25 ul/well) to a final concentration of 0-0.73 ug/ml (0-5.3 nM). After the addition of LCS Reagent (Promega, 100 ul/well, 10 μM final concentration), luciferase activity was measured using an Infinity F500 microtiter plate reader (Tecan).

B1: ATG-1915: Control Target with a terminal Small Bit: HALOTAG-VEGFA-165 with C-terminal NLpep114 tag (SEQ ID NO: 2577) (protein)
chain: MNSFSTSAFGPVAFSLGLLLVLPAAFPAPRAEIGTGFPFDPHYVEVLGERMHYVDVGPRDGTPVLFLHGNPTSSYVWRNIIPHVAPTHRCIAPDLIGMGKSDKPDLGYFFDDHVRFMDAFIEALGLEEVVLVIHDWGSALGFHWAKRNPERVKGIAFMEFIRPIPTWDEWPEFARETFQAFRTTDVGRKLIIDQNVFIEGTLPMGVVRPLTEVEMDHYREPFLNPVDREPLWRFPNELPIAGEPANIVALVEEYMDWLHQSPVPKLLFWGTPGVLIPPAEAARLAKSLPNCKAVDIGPGLNLLQEDNPDLIGSEIARWLSTLEISGEPTTEDLYFQSDNAPMAEGGGQNHHEVVKFMDVYQRSYCHPIETLVDIFQEYPDEIEYIFKPSCVPLMRCGGCCNDEGLECVPTEESNITMQIMRIKPHQGQHIGEMSFLQHNKCECRPKKDRARQENPCGPCSERRKHLFVQDPQTCKCSCKNTDSRCKARQLELNERTCRCDKPRRGSSGVTGYRLFEEIL
anti-VEGF antibody
  overall luminescence signal, compared among constructs: highest signal
anti-VEGF antibody 0-0.73 ug/ml (0-5.3 nM), NLpoly11S-protein G 0.5 ug/ml (12 nM)
  signal over background (increase in bioluminescence with antibody over assay components without antibody): over 400 fold

B2: ATG-1946: Experimental Target with the Small Bit between one large and one small domain (C-terminal FLAG) (SEQ ID NO: 2579) (protein)
chain: MNSFSTSAFGPVAFSLGLLLVLPAAFPAPRAEIGTGFPFDPHYVEVLGERMHYVDVGPRDGTPVLFLHGNPTSSYVWRNIIPHVAPTHRCIAPDLIGMGKSDKPDLGYFFDDHVRFMDAFIEALGLEEVVLVIHDWGSALGFHWAKRNPERVKGIAFMEFIRPIPTWDEWPEFARETFQAFRTTDVGRKLIIDQNVFIEGTLPMGVVRPLTEVEMDHYREPFLNPVDREPLWRFPNELPIAGEPANIVALVEEYMDWLHQSPVPKLLFWGTPGVLIPPAEAARLAKSLPNCKAVDIGPGLNLLQEDNPDLIGSEIARWLSTLEISGEPTTEDLYFQSDNAPMAEGGGQNHHEVVKFMDVYQRSYCHPIETLVDIFQEYPDEIEYIFKPSCVPLMRCGGCCNDEGLECVPTEESNITMQIMRIKPHQGQHIGEMSFLQHNKCECRPKKDRARQENPCGPCSERRKHLFVQDPQTCKCSCKNTDSRCKARQLELNERTCRCDKPRRGSSGVTGYRLFEEILGSDYKDDDDK
anti-VEGF antibody
  signal loss relative to ATG-1915 (C-terminal NLpep114 tag): 40%

B3: ATG-1917: Experimental Target with the Small Bit (NLpep114) between two large domains (SEQ ID NO: 2578) (protein)
chain: MNSFSTSAFGPVAFSLGLLLVLPAAFPAPRAEIGTGFPFDPHYVEVLGERMHYVDVGPRDGTPVLFLHGNPTSSYVWRNIIPHVAPTHRCIAPDLIGMGKSDKPDLGYFFDDHVRFMDAFIEALGLEEVVLVIHDWGSALGFHWAKRNPERVKGIAFMEFIRPIPTWDEWPEFARETFQAFRTTDVGRKLIIDQNVFIEGTLPMGVVRPLTEVEMDHYREPFLNPVDREPLWRFPNELPIAGEPANIVALVEEYMDWLHQSPVPKLLFWGTPGVLIPPAEAARLAKSLPNCKAVDIGPGLNLLQEDNPDLIGSEIARWLSTLEISGEPTTEDLYFQSDNVTGYRLFEEILGSSGAPMAEGGGQNHHEVVKFMDVYQRSYCHPIETLVDIFQEYPDEIEYIFKPSCVPLMRCGGCCNDEGLECVPTEESNITMQIMRIKPHQGQHIGEMSFLQHNKCECRPKKDRARQENPCGPCSERRKHLFVQDPQTCKCSCKNTDSRCKARQLELNERTCRCDKPRR
anti-VEGF antibody
  signal reduction relative to ATG-1915 (C-terminal NLpep114 tag): 5 fold
